One molecule from US6630572 can be followed below.

Assay [1] addresses high-affinity cell surface thrombin receptor on mouse embryo (ME) cells (mouse) (UniProt P30558). In words: cell-based or functional assay.
Assay [2] has the same target. Nature of the assay: competition with [^125I]-alpha-thrombin on ME cells.
For assay [3] the target is unchanged. Nature of the assay: competition with [^125I]-alpha-thrombin (1 nM) on quiescent ME cells.
Assay [4] shares this target. Nature of the assay: competition with [^125I]-alpha-thrombin on ME cells; reference p508-530.
For assay [5] the target is unchanged. In words: competition with [^125I]-alpha-thrombin (1 nM) on quiescent ME cells; at 2.7 uM peptide.
Assay [6] shares this target. In words: competition with [^125I]-alpha-thrombin (1 nM) for specific binding to quiescent ME cells, 23 C.

In the case of RGDA [synthetic peptide p517-520 (residues 517 to 520 of human prothrombin)], in assay [1], the inhibition of alpha-thrombin stimulated DNA synthesis in ME cells by 625 nM p517-520, at 0.8 nM alpha-thrombin was found to be 75%; the inhibition of alpha-thrombin stimulated DNA synthesis in ME cells by 625 nM p517-520, at 13.0 nM alpha-thrombin was found to be 35%; the molar excess of p517-520 over alpha-thrombin required for inhibition of stimulation lay within 500 to 1000 fold. This molecule showed a percent of [^125I]-alpha-thrombin binding competed in assay [2] of 30 to 50%. The molecule also showed a concentration at Maximal % Inhibition in assay [3] of 2.7 µM. Moreover, the fold higher concentration for 30% inhibition than p508-530 in assay [4] stood at 50 fold. The same molecule registered a Maximal % Inhibition in assay [5] of 50%. This molecule also registered a Concentration Required for 30% Inhibition in assay [6] of 300 nM.
